Blank lines part the entries; values can stand above or below the binder they belong to.
Target: T1, interleukin-17 receptor B (IL-17RB), human, endogenous or ectopic full-length on cells (human, UniProt Q9NRM6 18-502)
T1 construct: In the assays the protein stood on human cancer cell lines or tissue sections; also called native IL-17RB; endogenous IL-17RB
T1 sequence: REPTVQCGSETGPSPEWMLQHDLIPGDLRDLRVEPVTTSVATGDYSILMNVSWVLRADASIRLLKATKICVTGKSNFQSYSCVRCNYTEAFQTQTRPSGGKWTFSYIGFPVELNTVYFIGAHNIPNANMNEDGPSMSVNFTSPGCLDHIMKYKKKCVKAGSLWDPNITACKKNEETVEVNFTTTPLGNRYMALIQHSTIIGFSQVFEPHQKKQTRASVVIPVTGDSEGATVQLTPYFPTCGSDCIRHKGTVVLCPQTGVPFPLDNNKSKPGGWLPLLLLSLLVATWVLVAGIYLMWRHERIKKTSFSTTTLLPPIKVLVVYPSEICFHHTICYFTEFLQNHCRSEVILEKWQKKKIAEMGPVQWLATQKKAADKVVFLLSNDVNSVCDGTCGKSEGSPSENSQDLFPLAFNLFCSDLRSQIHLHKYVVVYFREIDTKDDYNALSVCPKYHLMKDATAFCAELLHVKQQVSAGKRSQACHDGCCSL
Assay: FACS on IL-17RB expressing pancreatic cancer cell lines (CFPAC-1 WT and KO, HPAF-II; MCF10A negative control)
Description: FIG. 9. Specificity and Binding Efficiency of anti-IL17RB chimeric D9 antibody (cD9). A, the specific recognition of mouse and chimeric D9 antibody to IL-17RB was determined by FACS analysis using IL-17RB expression (WT) and IL-17RB knock-out (KO) pancreatic cancer cell line CFPAC-1. The FACS profiling of no antibody (no staining) or secondary antibody only (2nd Ab only) were served as control. B, the recognition efficiency of mouse and chimeric D9 antibody was measured by FACS analysis using IL-17RB expression pancreatic cancer cell lines, CFPAC-1 and HPAF-II. MCF10A with no IL-17RB expression was served as negative control.

binding result: binds
B1: chimeric monoclonal anti-IL-17RB antibody cD9 (antibody, V domains shown)
VH: EVQLQQSGPELVKPGASVKISCKTSGYTFTEYTIHWVKQNHGKSLDWIGGINPNNGGTTYNQEFKGKATLTVDKSSSTAYMEFRSLTSEDSAVYYCARSYYGYVDYWGQGTTLTAA
VL: QIVLTQSPAIMSASPGEKVTMTCSASSSIYYIHWYQQKSGTSPKRWIYDTSKLASGVPARFSGSGSGTSYSLTISSMEAEDAATYYCQQWSSNPFTFGSGTKLEIK
notes: also called chimeric D9 antibody; mAb cD9

binding result: binds
B2: mouse monoclonal anti-IL-17RB antibody D9 (antibody, V domains shown)
VH: B1 VH
VL: B1 VL
notes: Mouse monoclonal antibody from a hybridoma, raised against recombinant IL-17RB extracellular domain (amino acids 18-289) made in HEK293 cells; also called mAb D9; mAbD9

Source: patent US20180201672A1 (ACADEMIA SINICA, published 2018)
